Reference: the supplement of paper PMC6755084

Tested on: F1*sub RNA substrate (template-directed ligation)
Assay: fraction ligated after 30 min (ligated reads / total reads); higher = more ligase activity; sequences stand for … in GAGACCGCAACTGAAAAGTTGT…AGTTCTGCACGTAGAAGCAAAAGGC
Conditions: 42 °C
Procedure: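 Chip-synthesised pool of F1* ligase ribozyme variants (all single and double substitutions, single, double and triple deletions in the catalytic core and GAA bulge, plus designed variants) was transcribed with T7 and reacted as a pool with excess substrate F1*sub for 30 min at 42 C in 50 mM EPPS pH 8.5, 25 mM MgCl2. Ligated and unligated bands were separated by PAGE, barcoded by RT and deep sequenced; fraction ligated = ligated reads / total reads per variant, relative activity = FL / FL of wild type (0.826). Sequences are the DNA template of the ribozyme.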

| Sequence | fraction ligated |
| --- | --- |
| AACTTGTCGTAAGACACTTTGGATGGGTTGA [3d24] | 0.293 |
| ACACTGTCGTAAGACACTTTGGATGGGTTGA [3d27] | 0.238 |
| ACACTTGCGTAAGACACTTTGGATGGGTTGA [3d29] | 0.197 |
| ACACTTGTCGAAGACACTTTGGATGGGTTGA [3d32] | 0.475 |
| ACACTTGTCGTAAACACTTTGGATGGGTTGA [3d34] | 0.201 |
| ACACTTGTCGTAAGAACTTTGGATGGGTTGA [3d36] | 0.218 |
| ACACTTGTCGTAAGACACTTGGATGGGTTGA [3d39] | 0.157 |
| ACACTTGTCGTAAGACACTTTGATGGGTTGA [3d40] | 0.0824 |
| ACACTTGTCGTAAGACACTTTGGAGGGTTGA [3d42] | 0.115 |
| ACACTTGTCGTAAGACACTTTGGATGGGTTA [3d44] | 0.217 |
| ACACTTGTCGTAAGACACTTTGGATGGGTTG [3d45] | 0.739 |
| ACACTTGTCGTAAGACACTTTGGATGGGTTGA [2d2] | 0.725 |
| ACACTTGTCGTAAGACACTTTGGATGGTTGA [3d43] | 0.662 |
| ACACTTGTCGTAAGACACTTTGGTGGGTTGA [3d41] | 0.0656 |
| ACACTTGTCGTAAGACATTTGGATGGGTTGA [3d38] | 0.484 |
| ACACTTGTCGTAAGACCTTTGGATGGGTTGA [3d37] | 0.627 |
| ACACTTGTCGTAAGCACTTTGGATGGGTTGA [3d35] | 0.221 |
| ACACTTGTCGTAGACACTTTGGATGGGTTGA [3d33] | 0.552 |
| ACACTTGTCTAAGACACTTTGGATGGGTTGA [3d31] | 0.441 |
| ACACTTGTGTAAGACACTTTGGATGGGTTGA [3d30] | 0.407 |
| ACACTTTCGTAAGACACTTTGGATGGGTTGA [3d28] | 0.0846 |

| Sequence | fraction ligated |
| --- | --- |
| ACATTGTCGTAAGACACTTTGGATGGGTTGA [3d26] | 0.0699 |
| ACCTTGTCGTAAGACACTTTGGATGGGTTGA [3d25] | 0.616 |
| ATACTGTCGTAAGACACTTTGGATGGGTTGA [3d48] | 0.361 |
| ATACTTGCGTAAGACACTTTGGATGGGTTGA [3d50] | 0.177 |
| ATACTTGTCGAAGACACTTTGGATGGGTTGA [3d53] | 0.268 |
| ATACTTGTCGTAAACACTTTGGATGGGTTGA [3d55] | 0.112 |
| ATACTTGTCGTAAGAACTTTGGATGGGTTGA [3d57] | 0.448 |
| ATACTTGTCGTAAGACACTTGGATGGGTTGA [3d60] | 0.473 |
| ATACTTGTCGTAAGACACTTTGATGGGTTGA [3d61] | 0.291 |
| ATACTTGTCGTAAGACACTTTGGAGGGTTGA [3d63] | 0.0364 |
| ATACTTGTCGTAAGACACTTTGGATGGGTTA [3d65] | 0.0347 |
| ATACTTGTCGTAAGACACTTTGGATGGGTTG [3d66] | 0.244 |
| ATACTTGTCGTAAGACACTTTGGATGGGTTGA [2d3] | 0.478 |
| ATACTTGTCGTAAGACACTTTGGATGGTTGA [3d64] | 0.21 |
| ATACTTGTCGTAAGACACTTTGGTGGGTTGA [3d62] | 0.0395 |
| ATACTTGTCGTAAGACATTTGGATGGGTTGA [3d59] | 0.446 |
| ATACTTGTCGTAAGACCTTTGGATGGGTTGA [3d58] | 0.412 |
| ATACTTGTCGTAAGCACTTTGGATGGGTTGA [3d56] | 0.279 |
| ATACTTGTCGTAGACACTTTGGATGGGTTGA [3d54] | 0.0939 |
| ATACTTGTCTAAGACACTTTGGATGGGTTGA [3d52] | 0.24 |
| ATACTTGTGTAAGACACTTTGGATGGGTTGA [3d51] | 0.734 |

| Sequence | fraction ligated |
| --- | --- |
| ATACTTTCGTAAGACACTTTGGATGGGTTGA [3d49] | 0.0977 |
| ATATTGTCGTAAGACACTTTGGATGGGTTGA [3d47] | 0.0915 |
| ATCACGTCGTAAGACACTTTGGATGGGTTGA [3d105] | 0.749 |
| ATCACTGCGTAAGACACTTTGGATGGGTTGA [3d107] | 0.818 |
| ATCACTGTCGAAGACACTTTGGATGGGTTGA [3d110] | 0.775 |
| ATCACTGTCGTAAACACTTTGGATGGGTTGA [3d112] | 0.747 |
| ATCACTGTCGTAAGAACTTTGGATGGGTTGA [3d114] | 0.848 |
| ATCACTGTCGTAAGACACTTGGATGGGTTGA [3d117] | 0.743 |
| ATCACTGTCGTAAGACACTTTGATGGGTTGA [3d118] | 0.685 |
| ATCACTGTCGTAAGACACTTTGGAGGGTTGA [3d120] | 0.148 |
| ATCACTGTCGTAAGACACTTTGGATGGGTTA [3d122] | 0.298 |
| ATCACTGTCGTAAGACACTTTGGATGGGTTG [3d123] | 0.74 |
| ATCACTGTCGTAAGACACTTTGGATGGGTTGA [2d6] | 0.739 |
| ATCACTGTCGTAAGACACTTTGGATGGTTGA [3d121] | 0.46 |
| ATCACTGTCGTAAGACACTTTGGTGGGTTGA [3d119] | 0.108 |
| ATCACTGTCGTAAGACATTTGGATGGGTTGA [3d116] | 0.719 |
| ATCACTGTCGTAAGACCTTTGGATGGGTTGA [3d115] | 0.726 |
| ATCACTGTCGTAAGCACTTTGGATGGGTTGA [3d113] | 0.749 |
| ATCACTGTCGTAGACACTTTGGATGGGTTGA [3d111] | 0.824 |
| ATCACTGTCTAAGACACTTTGGATGGGTTGA [3d109] | 0.756 |
| ATCACTGTGTAAGACACTTTGGATGGGTTGA [3d108] | 0.823 |

| Sequence | fraction ligated |
| --- | --- |
| ATCACTTCGTAAGACACTTTGGATGGGTTGA [3d106] | 0.761 |
| ATCACTTGCGAAGACACTTTGGATGGGTTGA [3d142] | 0.743 |
| ATCACTTGCGTAAACACTTTGGATGGGTTGA [3d144] | 0.758 |
| ATCACTTGCGTAAGAACTTTGGATGGGTTGA [3d146] | 0.835 |
| ATCACTTGCGTAAGACACTTGGATGGGTTGA [3d149] | 0.726 |
| ATCACTTGCGTAAGACACTTTGATGGGTTGA [3d150] | 0.561 |
| ATCACTTGCGTAAGACACTTTGGAGGGTTGA [3d152] | 0.061 |
| ATCACTTGCGTAAGACACTTTGGATGGGTTA [3d154] | 0.567 |
| ATCACTTGCGTAAGACACTTTGGATGGGTTG [3d155] | 0.805 |
| ATCACTTGCGTAAGACACTTTGGATGGGTTGA [2d8] | 0.836 |
| ATCACTTGCGTAAGACACTTTGGATGGTTGA [3d153] | 0.569 |
| ATCACTTGCGTAAGACACTTTGGTGGGTTGA [3d151] | 0.0301 |
| ATCACTTGCGTAAGACATTTGGATGGGTTGA [3d148] | 0.768 |
| ATCACTTGCGTAAGACCTTTGGATGGGTTGA [3d147] | 0.757 |
| ATCACTTGCGTAAGCACTTTGGATGGGTTGA [3d145] | 0.804 |
| ATCACTTGCGTAGACACTTTGGATGGGTTGA [3d143] | 0.818 |
| ATCACTTGCTAAGACACTTTGGATGGGTTGA [3d141] | 0.763 |
| ATCACTTGGTAAGACACTTTGGATGGGTTGA [3d140] | 0.735 |
| ATCACTTGTCAAGACACTTTGGATGGGTTGA [3d171] | 0.749 |
| ATCACTTGTCGAAACACTTTGGATGGGTTGA [3d186] | 0.784 |
| ATCACTTGTCGAAGAACTTTGGATGGGTTGA [3d188] | 0.805 |
